Residue numbers refer to the chain shown, from its start. Numbers in names are those of the source.
B1: M155L: mutated TriA variant of SEQ ID NO: 2 (protein)
chain: MQTLSIQHGTLVTMDQYRRVLGDSWVHVQDGRIVALGVHAESVPPPADRVIDARGKVVLPGFINAHTHVNQILLRGGPSHGRQLYDWLFNVLYPGQKAMRPEDVAVAVRLYCAEAVRSGITTINDNADSAIYPGNIEAAMAVYGEVGVRVVYARLFFDRMDGRIQGYVDALKARSPQVELCSIMEETAVAKDRITALSDQYHGTAGGRISVWPAPAITPAVTVEGMRWAQAFARDRAVMWTLHMAESDHDERLHWMSPAEYMECYGLLDERLQVAHCVYFDRKDVRLLHRHNVKVASQVVSNAYLGSGVAPVPEMVERGMAVGIGTDDGNCNDSVNMIGDMKFMAHIHRAVHRDADVLTPEKILEMATIDGARSLGMDHEIGSIETGKRADLILLDLRHPQTTPHHHLAATIVFQAYGNEVDTVLIDGNVVMENRRLSFLPPERELAFLEEAQSRATAILQRANMVANPAWRSL
modifications: Pseudomonas
B2: F157T: mutated TriA variant of SEQ ID NO: 2 (protein)
chain: B1 chain with L155M, F157T
modifications: Pseudomonas
B3: W87AL92AY93LF157L: mutated TriA variant of SEQ ID NO: 2 (protein)
chain: B1 chain with W87A, L92A, Y93L, L155M, F157L
modifications: Pseudomonas
B4: D128V: mutated TriA variant of SEQ ID NO: 2 (protein)
chain: B1 chain with D128V, L155M
modifications: Pseudomonas
B5: Q71LL88AV91AL92VF157L: mutated TriA variant of SEQ ID NO: 2 (protein)
chain: B1 chain with Q71L, L88A, V91A, L92V, L155M, F157L
modifications: Pseudomonas
B6: Q96V: mutated TriA variant of SEQ ID NO: 2 (protein)
chain: B1 chain with Q96V, L155M
modifications: Pseudomonas
B7: N70LQ71ID128IM155V: mutated TriA variant of SEQ ID NO: 2 (protein)
chain: B1 chain with N70L, Q71I, D128I, L155V
modifications: Pseudomonas
B8: N70VM155V: mutated TriA variant of SEQ ID NO: 2 (protein)
chain: B1 chain with N70V, L155V
modifications: Pseudomonas
B9: N70VD128TM155V: mutated TriA variant of SEQ ID NO: 2 (protein)
chain: B1 chain with N70V, D128T, L155V
modifications: Pseudomonas
B10: N70IQ71IF157A: mutated TriA variant of SEQ ID NO: 2 (protein)
chain: B1 chain with N70I, Q71I, L155M, F157A
modifications: Pseudomonas
B11: D128G: mutated TriA variant of SEQ ID NO: 2 (protein)
chain: B1 chain with D128G, L155M
modifications: Pseudomonas
B12: N70VD128SM155V: mutated TriA variant of SEQ ID NO: 2 (protein)
chain: B1 chain with N70V, D128S, L155V
modifications: Pseudomonas
B13: L88VL92I: mutated TriA variant of SEQ ID NO: 2 (protein)
chain: B1 chain with L88V, L92I, L155M
modifications: Pseudomonas
B14: N70LQ71ID128IM155VF157L: mutated TriA variant of SEQ ID NO: 2 (protein)
chain: B1 chain with N70L, Q71I, D128I, L155V, F157L
modifications: Pseudomonas
B15: Y85LL88AF89AL92AY93LQ96TD128GM155VF157L: mutated TriA variant of SEQ ID NO: 2 (protein)
chain: B1 chain with Y85L, L88A, F89A, L92A, Y93L, Q96T, D128G, L155V, F157L
modifications: Pseudomonas
B16: Q71LV91A: mutated TriA variant of SEQ ID NO: 2 (protein)
chain: B1 chain with Q71L, V91A, L155M
modifications: Pseudomonas
B17: L88AF157L: mutated TriA variant of SEQ ID NO: 2 (protein)
chain: B1 chain with L88A, L155M, F157L
modifications: Pseudomonas
B18: D128P: mutated TriA variant of SEQ ID NO: 2 (protein)
chain: B1 chain with D128P, L155M
modifications: Pseudomonas
B19: Q71LV91AL92V: mutated TriA variant of SEQ ID NO: 2 (protein)
chain: B1 chain with Q71L, V91A, L92V, L155M
modifications: Pseudomonas
B20: L88VL92V: mutated TriA variant of SEQ ID NO: 2 (protein)
chain: B1 chain with L88V, L92V, L155M
modifications: Pseudomonas
B21: Q71LL88AV91AL92V: mutated TriA variant of SEQ ID NO: 2 (protein)
chain: B1 chain with Q71L, L88A, V91A, L92V, L155M
modifications: Pseudomonas
B22: Y85LL88AF89AL92AY93VQ96TD128GM155VF157L: mutated TriA variant of SEQ ID NO: 2 (protein)
chain: B1 chain with Y85L, L88A, F89A, L92A, Y93V, Q96T, D128G, L155V, F157L
modifications: Pseudomonas
B23: L88VL92VF157A: mutated TriA variant of SEQ ID NO: 2 (protein)
chain: B1 chain with L88V, L92V, L155M, F157A
modifications: Pseudomonas
B24: L88VL92IF157V: mutated TriA variant of SEQ ID NO: 2 (protein)
chain: B1 chain with L88V, L92I, L155M, F157V
modifications: Pseudomonas
B25: N70LQ71LF157A: mutated TriA variant of SEQ ID NO: 2 (protein)
chain: B1 chain with N70L, Q71L, L155M, F157A
modifications: Pseudomonas
B26: N70IQ71L92VM155AF157A: mutated TriA variant of SEQ ID NO: 2 (protein)
chain: B1 chain with N70I, Q71L, L92V, L155A, F157A
modifications: Pseudomonas
B27: L88AF157I: mutated TriA variant of SEQ ID NO: 2 (protein)
chain: B1 chain with L88A, L155M, F157I
modifications: Pseudomonas
B28: N70VQ71L92VM155AF157A: mutated TriA variant of SEQ ID NO: 2 (protein)
chain: B1 chain with N70V, Q71L, L92V, L155A, F157A
modifications: Pseudomonas

Assay type: biochemical
Details: pH 7.2
Outline: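 Expression: BL21(DE3) Gold, pET24d N-His, pGro7, 0.1 mM IPTG, 25° C, 20 h. Reaction: 25 mM Na phosphate pH 7.2, substrate 1 nM to 10 nM, 30° C. Analysis: UPLC-HR-MS; % degradation vs empty vector.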

B1 and B2 are the same in “Degradation in % of 6-cyclopentyl-N4-(2,3,4,5,6-pentafluorophenyl)-1,3,5-triazine-2,4-diamine” value: 0% for the first, 0% for the second.

First: B3
Second: B4
The “Degradation in % of 6-cyclopentyl-N4-(2,3,4,5,6-pentafluorophenyl)-1,3,5-triazine-2,4-diamine” value of the first is higher: 12% for the first, 2% for the second.

Compared with B5, B6 is lower in “Degradation in % of 6-cyclopentyl-N4-(2,3,4,5,6-pentafluorophenyl)-1,3,5-triazine-2,4-diamine” value: 1% for the first, 0% for the second.

B7 and B8 are the same in “Degradation in % of 6-cyclopentyl-N4-(2,3,4,5,6-pentafluorophenyl)-1,3,5-triazine-2,4-diamine” value: 0% for the first, 0% for the second.

Going from B9 to B10, the “Degradation in % of 6-cyclopentyl-N4-(2,3,4,5,6-pentafluorophenyl)-1,3,5-triazine-2,4-diamine” value rises from 1% to 3%.

B11 and B12 are the same in “Degradation in % of 6-cyclopentyl-N4-(2,3,4,5,6-pentafluorophenyl)-1,3,5-triazine-2,4-diamine” value: 0% for the first, 0% for the second.

B13 and B14 are the same in “Degradation in % of 6-cyclopentyl-N4-(2,3,4,5,6-pentafluorophenyl)-1,3,5-triazine-2,4-diamine” value: 0% for the first, 0% for the second.

Compared with B15, B16 is lower in “Degradation in % of 6-cyclopentyl-N4-(2,3,4,5,6-pentafluorophenyl)-1,3,5-triazine-2,4-diamine” value: 13% for the first, 0% for the second.

B17 and B18 are the same in “Degradation in % of 6-cyclopentyl-N4-(2,3,4,5,6-pentafluorophenyl)-1,3,5-triazine-2,4-diamine” value: 0% for the first, 0% for the second.

Going from B19 to B20, the “Degradation in % of 6-cyclopentyl-N4-(2,3,4,5,6-pentafluorophenyl)-1,3,5-triazine-2,4-diamine” value falls from 3% to 0%.

First: B21
Second: B22
The “Degradation in % of 6-cyclopentyl-N4-(2,3,4,5,6-pentafluorophenyl)-1,3,5-triazine-2,4-diamine” value of the first is lower: 1% for the first, 13% for the second.

B23 and B24 are the same in “Degradation in % of 6-cyclopentyl-N4-(2,3,4,5,6-pentafluorophenyl)-1,3,5-triazine-2,4-diamine” value: 0% for the first, 0% for the second.

Going from B25 to B26, the “Degradation in % of 6-cyclopentyl-N4-(2,3,4,5,6-pentafluorophenyl)-1,3,5-triazine-2,4-diamine” value rises from 0% to 1%.

Going from B27 to B28, the “Degradation in % of 6-cyclopentyl-N4-(2,3,4,5,6-pentafluorophenyl)-1,3,5-triazine-2,4-diamine” value rises from 0% to 1%.

Compared with B1, B2 is higher in “Degradation in % of Melamine” value: 4% for the first, 60% for the second.

First: B3
Second: B4
The “Degradation in % of Melamine” value of the first is higher: 3% for the first, 0% for the second.

B5 and B6 are the same in “Degradation in % of Melamine” value: 4% for the first, 4% for the second.

Compared with B7, B8 is lower in “Degradation in % of Melamine” value: 9% for the first, 0% for the second.

First: B9
Second: B10
The “Degradation in % of Melamine” value of the first is higher: 4% for the first, 0% for the second.

B11 and B12 are the same in “Degradation in % of Melamine” value: 0% for the first, 0% for the second.

Going from B13 to B14, the “Degradation in % of Melamine” value falls from 8% to 3%.

Going from B15 to B16, the “Degradation in % of Melamine” value falls from 1% to 0%.

Compared with B17, B18 is lower in “Degradation in % of Melamine” value: 2% for the first, 0% for the second.

First: B19
Second: B20
The “Degradation in % of Melamine” value of the first is higher: 7% for the first, 0% for the second.

First: B21
Second: B22
The “Degradation in % of Melamine” value of the first is lower: 0% for the first, 6% for the second.

Going from B23 to B24, the “Degradation in % of Melamine” value rises from 0% to 5%.

Going from B25 to B26, the “Degradation in % of Melamine” value falls from 2% to 0%.

B27 and B28 are the same in “Degradation in % of Melamine” value: 0% for the first, 0% for the second.

Source: patent US11499162B2, “Plants having increased tolerance to herbicides” (BASF SE, priority 2016, dated 2022)
